From patent US20250051449A1 (SURFACE ONCOLOGY, published 2025)
Positions count from the first letter of the chain named.

B1: Antibody 46 (antibody, V domains shown)
VH: EVQLVESGGGLVQPGRSLRLSCTASGFTFGDYAMSWFRQAPGKGLEWVGFIGSKAYGGTTEYTASVKGRFTISRDGSKSIAYLQMNSLKTEDTAVYYCARGPRRYTYGMDVWGQGTTVTVSS
VL: DIQMTQSPSSLSASVGDRVTITCRASQSISSYLNWYQQKPGKAPKLLIYAASSLQSGVPSRFSGSGSGTDFTLTISSLQPEDFATYYCQQSSTPLTFGGGTKVEIK
notes: in the mouse tumor studies it was used as mouse IgG2a; also called antibody clone number 46; clone 46
B2: Antibody 32 (antibody, V domains shown)
VH: QVQLVQSGAEVKKPGSSVKVSCKASGGTFSSYAISWVRQAPGQGLEWMGGIIPISGTANYAQKFQGRVTITADESTSTAYMELSSLRSEDTAVYYCARDTGRGYTRHFWFDPWGQGTLVTVSS
VL: B1 VL with S92D, T93I, P94L, L95Y
notes: Purified as IgG; compared with an IgG1 isotype control and detected with anti-human IgG Fc; also called antibody clone number 32; parent clone 32
B3: Antibody 34 (antibody, V domains shown)
VH: B2 VH with Y32A, I52F, T57H
VL: B1 VL with S92D, T93I, P94L, L95Y
notes: Purified as IgG; compared with an IgG1 isotype control and detected with anti-human IgG Fc; also called antibody clone number 34; clone 34
B4: Antibody 35 (antibody, V domains shown)
VH: B2 VH with Y32A, G50N, S55V, T57I
VL: B1 VL with S92D, T93I, P94L, L95Y
notes: Purified as IgG; compared with an IgG1 isotype control and detected with anti-human IgG Fc; also called antibody clone number 35; clone 35
B5: Antibody 36 (antibody, V domains shown)
VH: B2 VH with S30A, S31T, I52F, I54L
VL: B1 VL with S92D, T93I, P94L, L95Y
notes: Purified as IgG; compared with an IgG1 isotype control and detected with anti-human IgG Fc; also called antibody clone number 36; clone 36
B6: Antibody 33 (antibody, V domains shown)
VH: B2 VH with S30G, S31N, S55P, T57I
VL: B1 VL with S92D, T93I, P94L, L95Y
notes: Purified as IgG; compared with an IgG1 isotype control and detected with anti-human IgG Fc; also called antibody clone number 33; clone 33
B7: Antibody 58 (antibody, V domains shown)
VH: B1 VH with A55F, T59E
VL: B1 VL
notes: Purified as IgG; compared with an IgG1 isotype control and detected with anti-human IgG Fc; also called antibody clone number 58; clone 58

Assays:
[1] = molecular target: T1, mouse CD112R-hIgG4 fusion protein (mouse; human); experiment: ELISA: coated antibody, titrated mouse CD112R-hIgG4, anti-IgG4 HRP
T1 construct: also called soluble mouse CD112R; soluble murine CD112R
Method: The ability of anti-CD112R antibodies to bind to soluble mouse CD112R was evaluated by ELISA. Briefly. 96 well Nunc Maxisorp plates were coated with 1 μg/mL of anti-CD112R antibodies or isotype control (Biolegend. Cat #403502) in PBS overnight at 4° C. […] After blocking, plates were washed 6× with PBST. Next. 100 μL of a mouse CD112R-hIgG4 fusion protein in PBS+1% BSA was added at a final starting concentration of 10 μg/mL, with 4-fold serial dilutions. Plates were incubated at room temperature for 1.5 hours. Next plates were washed 6× with PBST and then incubated with anti-IgG4 HRP (Thermo Fisher, Cat #MA1-33437) in 100 μL for 1 hour at room temperature. Plates were then washed 6× with PBST and developed with TMB substrate (Life Technologies. Cat #002023). The reaction was stopped with an equal volume of stop solution (Life Technologies. Cat #SS04). Absorbance at 450 nm (O.D. 450) was measured on a SpectraMax plate reader.

[2] = molecular target: T2, human CD112R expressed on Jurkat cells (human, UniProt Q6DKI7 1-326); experiment: flow cytometry, wild type Jurkat cells, 0.63 ug/mL antibody
T2 construct: whole, on cells; Used for both Jurkat-CD112R OE cells and wild type Jurkat cells; which cells is said under assay; also called PVRIG; Jurkat-CD112R OE
T2 sequence (looked up): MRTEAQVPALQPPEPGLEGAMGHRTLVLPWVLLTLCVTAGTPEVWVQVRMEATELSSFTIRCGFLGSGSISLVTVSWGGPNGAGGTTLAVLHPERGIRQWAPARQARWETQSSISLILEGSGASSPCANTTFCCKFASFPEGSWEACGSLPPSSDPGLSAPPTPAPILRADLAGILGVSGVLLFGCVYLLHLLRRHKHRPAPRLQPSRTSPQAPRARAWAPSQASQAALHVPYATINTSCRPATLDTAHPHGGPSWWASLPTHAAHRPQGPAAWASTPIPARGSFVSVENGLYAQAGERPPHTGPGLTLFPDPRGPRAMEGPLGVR
Method: (§1) The ability of anti-CD112R antibodies to bind to CD112R expressed on cells was evaluated. 1×10⁵ Jurkat cells (acute T cell leukemia cell line, ATCC #TIB-152) that were either wild type or engineered to over-express human CD112R (Jurkat-CD112R OE) were added to each well of a 96-well V bottom plate and stained with either anti-CD112R antibodies or an IgG1 isotype control (0.63 μg/mL) for 1 hour at 4° C. Cells were washed twice with PBS+2% FCS and resuspended with Alexa Fluor® 647 anti-human IgG Fc antibody (Biolegend, Cat #409320) diluted 1:100 in PBS+2% FCS and incubated at 4° C. for 30 minutes. Cells were subsequently washed twice and resuspended in PBS+2% FCS. Cellular data was acquired using a LSRFortessa X-20 (BD Biosciences) and analyzed with FlowJo software (Tree Star).

[3] = molecular target: T2, human CD112R expressed on Jurkat cells; experiment: flow cytometry, Jurkat cells over-expressing human CD112R, 0.63 ug/mL antibody
Method: as §1
Results are depicted in FIG. 1. Quantitation of antibody binding to Jurkat-CD112R OE cells was assessed by the geometric mean fluorescent intensity (gMFI) of the Alexa Fluor® 647 signal.

[4] = molecular target: T3, mouse CD112R overexpressed on 293T cells (mouse); experiment: flow cytometry, 293T cells overexpressing mouse CD112R
T3 construct: whole, on cells; also called 293T.mCD112R; 293T-mouse CD112R
Method: The ability of anti-CD112R antibodies to bind to mouse CD112R was evaluated on cells overexpressing mouse CD112R. 0.8×10⁵ 293T cells (ATCC CRL-3216) that were engineered to overexpress mouse CD112R (293T.mCD112R) were added to each well of a 96-well V bottom plate and stained with either anti-CD112R antibodies or an IgG1 isotype control at a starting concentration of 10 μg/mL, with 3-fold serial dilutions for 30 minutes at 4° C. Cells were washed twice with PBS+2% FCS and resuspended with Alexa Fluor® 647 anti-human IgG Fc antibody (Biolegend, Cat #409320) diluted 1:100 in PBS+2% FCS and incubated at 4° C. for 20 minutes. Cells were subsequently washed twice and resuspended in PBS+2% FCS. Cellular data was acquired using a LSRFortessa X-20 (BD Biosciences) and analyzed with FlowJo software (Tree Star).
Results are depicted in FIG. 17 and Table 11. Quantitation of antibody binding to 293T.mCD112R cells was assessed by the geometric mean fluorescent intensity (gMFI) of the Alexa Fluor® 647 signal.

[5] = molecular target: T2, human CD112R expressed on Jurkat cells; experiment: flow cytometry competition on Jurkat-CD112R OE cells; competitor biotinylated his-tagged human CD112
Method: The ability of anti-CD112R antibodies to block CD112 binding to CD112R expressing cells was evaluated. 1×10⁵ Jurkat cells (acute T cell leukemia cell line, ATCC #TIB-152) that were engineered to over-express human CD112R (Jurkat-CD112R OE) were added to each well of a 96-well V bottom plate and stained with serial dilutions of either anti-CD112R antibodies or an IgG1 isotype control (highest concentration, 10 μg/mL) for 1 hour at 4° C. Cells were washed twice with PBS+2% FCS and resuspended with biotinylated his-tagged human CD112 (3 μg/mL) (BPS Bioscience, #71234) and PE Streptavidin (5 μg/mL) (Biolegend, #405204) in PBS+2% FCS and incubated at 2 hours at 4° C. Cells were subsequently washed twice and resuspended in PBS+2% FCS. Cellular data was acquired using a LSRFortessa X-20 (BD Biosciences) and analyzed with FlowJo software (Tree Star).
Results are depicted in FIG. 2A and Table 2. […] Percent inhibition was calculated as [100−((test sample MFI/Max MFI)*100%)]

| Binder | EC50 [1] [mg/L] | gMFI (fold increase over isotype) [2] | gMFI (fold increase over isotype) [3] | gMFI (fold increase over isotype) [4] | CD112 blocking max inhibition (%) [5] [%] | IC50 [5] [mg/L] |
| --- | --- | --- | --- | --- | --- | --- |
| B1 | 0.181 | 4.2 fold increase over isotype | 23.8 fold increase over isotype | 74.8 fold increase over isotype | 95.5 | 0.0162 |
| B2 | 0.27 | 2.5 fold increase over isotype | 27.9 fold increase over isotype | 14.9 fold increase over isotype | 96 | 0.0236 |
| B3 | 0.0242 | 3.8 fold increase over isotype | 33.8 fold increase over isotype | 72.2 fold increase over isotype | 96.9 | 0.0132 |
| B4 | 0.0215 | 3.3 fold increase over isotype | 32.1 fold increase over isotype | 55.6 fold increase over isotype | 97.4 | 0.0162 |
| B5 | 0.0251 | 3.5 fold increase over isotype | 31 fold increase over isotype | 76.3 fold increase over isotype | 97.5 | 0.0244 |
| B6 | 0.0383 | 3.4 fold increase over isotype | 34.2 fold increase over isotype | 73.3 fold increase over isotype | 97.4 | 0.0219 |
| B7 | 0.412 | 4.5 fold increase over isotype | 37.3 fold increase over isotype | 79.4 fold increase over isotype | 96.3 | 0.0028 |
